Reference: article PMC2858704

Target: T1, PefR (Gbs1402) (Streptococcus agalactiae NEM316) (UniProt Q8E4J9)
T1 sequence: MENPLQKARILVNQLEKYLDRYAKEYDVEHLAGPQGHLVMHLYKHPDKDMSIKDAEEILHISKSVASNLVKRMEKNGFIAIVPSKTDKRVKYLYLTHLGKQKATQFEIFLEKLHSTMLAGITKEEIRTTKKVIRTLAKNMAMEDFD
Assay: EMSA
Conditions: EMSA: 5% glycerol, 20 mM Tris-HCl pH 8, 50 mM KCl, 0.2 mM MgCl2, 1 mM EDTA, 0.2 mM DTT, 0.3 uM BSA, 15 ul, 37 C 20 min; 8% PAGE in 1x TBE, ethidium bromide …

Sequence | binding
CTTGTTGAGCCGTTGACAACGAAATGTTAAAGCTATTCATCAAAGTTGGGATAGCCGTTCCCAAACTTGTCTGATTTAACACCCCTGCAAATGTAGCAATCAACAATAAGGTGATC (double strand) [control pefA internal fragment (116 bp)] | no binding
GCGTAGAAGTCATTAAATGGAGAACGCTTTATTAGGAAAAATAGTGGGGAGATATTTTAGAAAAAGGAAATAATGATGTTTTGAAAAAAATAGTTTCTATGAGAATCTTTTTCTTGACAATAAAATTTAGCTATTATAAAATAGTTCTCACGATAACTAAAATAATGATTTTTTCAGAAAATAATATTATTTATTGATTAAAAAATCAAAAAATAACCTTATAAGACCTATTTGTTATTCTTAAAAGATATTAGTTAAAATCAGAAATAGAGATTGGAGATA (double strand) [pefAB promoter fragment (281 bp)] | binds
ATTTGTATTTTACTATCATTTACATTAAAAATCAATATAAATTTATAATTAAAAATATAAAAAGCGAACATATATTTTTAATATTAAAAAGTAAGCGAAATCATTTTTTATTTGACGAATGATAGGTTTTTTTTAGAAATATTAATGTAAAAATAGTTCTCACGGTAACTTTTAATTGACAATTAATAAAGGTTGTTTTAAAATAGTTCTCACGATAACTATTAAAGGAGTATTATTATGGAGAATC (double strand) [pefRCD promoter fragment (248 bp)] | binds
